Blank lines part the entries; values can stand above or below the binder they belong to.
Columns and labels:
[1] = target: T1, Hazel (Cor A 1, MyBiosource, Cat# MBS5304600) (Hazel, UniProt Q08407 2-160, limits assumed); test: SPR Biacore 4000, mAb captured by anti-human Fc, 25 C;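 further: allergen analyte binding to captured, purified anti-Bet v 1 monoclonal antibodies, SPR in HEPES-buffered saline running buffer with EDTA and Tween-20 at pH 7.4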
T1 construct: Bought reagent
T1 sequence (looked up): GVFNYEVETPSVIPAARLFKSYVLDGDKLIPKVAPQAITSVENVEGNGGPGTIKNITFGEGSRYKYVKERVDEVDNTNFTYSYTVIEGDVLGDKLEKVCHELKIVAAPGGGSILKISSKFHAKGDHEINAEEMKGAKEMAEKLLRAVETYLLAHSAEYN

natural Bet v 1 [2] = target: T2, natural Bet v 1 (Betula verrucosa (Betula pendula), UniProt P15494 2-160); test: SPR Biacore 4000, mAb captured on anti-human Fc, 37C; 37 C;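 on 100 nM natural Bet v 1 Bound (RU): kinetic rate constants from SPR sensorgrams fitted to a 1:1 model with mass transport limitation, HBS-ET buffer pH 7.4, KD and t½ derived from the rate constants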;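 on t½: kinetic rate constants from SPR sensorgrams fitted to a 1:1 model with mass transport limitation, HBS-ET buffer pH 7.4, KD and t½ derived from the rate constants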
T2 construct: Bought natural protein; also called nBet v 1
T2 chain: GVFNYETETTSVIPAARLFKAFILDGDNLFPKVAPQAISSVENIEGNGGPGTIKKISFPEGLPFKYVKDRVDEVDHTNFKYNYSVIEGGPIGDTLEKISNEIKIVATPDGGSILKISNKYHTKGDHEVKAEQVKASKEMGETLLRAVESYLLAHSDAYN

natural Bet v 1 [3] = target: T2, natural Bet v 1; test: SPR Biacore 4000, mAb captured on anti-human Fc, 37C;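 further: kinetic rate constants from SPR sensorgrams fitted to a 1:1 model with mass transport limitation, HBS-ET buffer pH 7.4, KD and t½ derived from the rate constants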
natural Bet v 1 [4] = target: T2, natural Bet v 1; test: SPR Biacore 4000, mAb captured on anti-human Fc, 25C;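 further: purified anti-Bet v 1 mAbs probed with natural Bet v 1 in HBS-ET buffer (HEPES, NaCl, EDTA, Tween-20) at pH 7.4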
natural Bet v 1 [5] = target: T2, natural Bet v 1; test: cell-based or functional assay
[6] = target: T3, natural Bet v 1 (Indoor Biotechnologies, # NA-BV1-1) (Betula verrucosa (Betula pendula), UniProt P15494 2-160, biotin labeled in the IgE blocking ELISA (Tables 12-14); unlabeled in the SPR of Table 18); test: blocking ELISA, captured IgE of donor 23035-BL, 1 ug/mL each antibody
T3 construct: Bought natural allergen purified from birch pollen; also called nBet v 1; Biotinylated Bet v 1
T3 chain: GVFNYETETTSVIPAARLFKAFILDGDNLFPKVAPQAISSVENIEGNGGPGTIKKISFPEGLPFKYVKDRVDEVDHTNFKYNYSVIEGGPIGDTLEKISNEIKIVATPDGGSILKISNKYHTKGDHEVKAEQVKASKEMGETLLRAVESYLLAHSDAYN

[7] = target: T3, natural Bet v 1 (Indoor …); test: blocking ELISA, captured IgE of donor 23939-MH, 1 ug/mL each antibody
[8] = target: T3, natural Bet v 1 (Indoor …); test: blocking ELISA, captured IgE of donor 25299-RJ, 1 ug/mL each antibody
[9] = target: T3, natural Bet v 1 (Indoor …); test: blocking ELISA, captured IgE of donor 25340-RR, 1 ug/mL each antibody
[10] = target: T3, natural Bet v 1 (Indoor …); test: blocking ELISA, captured IgE of donor 25609-MS, 1 ug/mL each antibody
[11] = target: T3, natural Bet v 1 (Indoor …); test: dose-response blocking ELISA, captured IgE of donor 25609-MS, at 1 ug/mL each antibody
[12] = target: T3, natural Bet v 1 (Indoor …); test: blocking ELISA, captured IgE of donor 29718-MW, 1 ug/mL each antibody
[13] = target: T3, natural Bet v 1 (Indoor …); test: blocking ELISA, captured IgE of donor 25414-CW, 1 ug/mL each antibody
[14] = target: T3, natural Bet v 1 (Indoor …); test: dose-response blocking ELISA, captured IgE of donor 23939-MH, at 1 ug/mL each antibody
[15] = target: T3, natural Bet v 1 (Indoor …); test: blocking ELISA, captured IgE of donor 26532-CC, 1 ug/mL each antibody
[16] = target: T3, natural Bet v 1 (Indoor …); test: dose-response blocking ELISA, captured IgE of donor 25340-RR, at 1 ug/mL each antibody
[17] = target: T3, natural Bet v 1 (Indoor …); test: blocking ELISA, captured IgE of donor 22627-MN, 1 ug/mL each antibody
[18] = target: T3, natural Bet v 1 (Indoor …); test: blocking ELISA, captured IgE of donor 23658-MD, 1 ug/mL each antibody

- 100 nM Analyte Bound (RU) [1]: -1 RU
B1: H4H17067P2 (antibody, human IgG4, V domains shown)
VH: EVQLVQSGAEVKKPGESLKISCSGSGYRFTNYWIAWVRQMPGKGLEWMGLIHPDDSDIRYSPSFQGQVTFSVDKSINTAYLQWSSLKASDTAMYYCTRQDGILWSHNAWFDPWGQGTLVTVSS
VL: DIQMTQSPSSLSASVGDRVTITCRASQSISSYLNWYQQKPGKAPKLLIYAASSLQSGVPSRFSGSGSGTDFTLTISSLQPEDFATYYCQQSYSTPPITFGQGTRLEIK
notes: Fully human antibody with human IgG4 Fc (H4H prefix)

- blockade of basophil activation (phospho-Erk MFI in basophils of PBMCs from birch allergic donors, 100 pM natural Bet v 1) (natural Bet v 1 [5]): 70%
- 100 nM natural Bet v 1 Bound (RU) (natural Bet v 1 [3]): 83 RU
- Kd (natural Bet v 1 [3]): 2.43 nM
- t½ (natural Bet v 1 [3]): 6.3 min
- 100 nM natural Bet v 1 Bound (RU) (natural Bet v 1 [4]): 72 RU
- Kd (natural Bet v 1 [4]): 1.09 nM
B4: H4H17082P2 (antibody, human IgG4 S228P, kappa, V domains shown)
VH: QVQLVQSGAEVKKPGASVKVSCKASGYTFISYNIFWVRQATGQGLDWMGWMNPFRNNAGYAQKFQGRVTVTWDTSISTAYMELSSLSSEDTAIYYCAREHGSSWGFFDYWGQGTLVTVSS
VL: not shown
notes: Human IgG4; also called REGN5715; MAB2

- 100 nM Analyte Bound (RU) [1]: 20 RU
B5: H4H17082P2 (antibody, human IgG4 S228P, kappa, V domains shown)
VH: QVQLVQSGAEVKKPGASVKVSCKASGYTFISYNIFWVRQATGQGLDWMGWMNPFRNNAGYAQKFQGRVTVTWDTSISTAYMELSSLSSEDTAIYYCAREHGSSWGFFDYWGQGTLVTVSS
VL: not shown
notes: human IgG4 Fc; also called REGN5715; MAB2

- Percent Blocking [6]: 52%
- Percent Blocking [7]: 79%
- Percent Blocking [8]: 66%
- Percent Blocking [9]: 81%
- Percent Blocking [10]: 51%
- Percent Blocking [11]: 56.4%
- Percent Blocking [12]: 49%
- Percent Blocking [13]: 38%
- Percent Blocking [14]: 82.9%
- Percent Blocking [15]: 74%
- Percent Blocking [16]: 82.7%
B6: H4H17082P2 (antibody, human IgG4 S228P, kappa, V domains shown)
VH: QVQLVQSGAEVKKPGASVKVSCKASGYTFISYNIFWVRQATGQGLDWMGWMNPFRNNAGYAQKFQGRVTVTWDTSISTAYMELSSLSSEDTAIYYCAREHGSSWGFFDYWGQGTLVTVSS
VL: not shown
notes: human IgG4; also called REGN5715; MAB2

- 100 nM Analyte Bound (RU) [1]: 0 RU
- binding result [1]: no binding (tested: 100 nM)
B7: H4H17045P2 (antibody, human IgG4, V domains shown)
VH: EVQLVESGGGLVQPGVSLRLSCVASGFTFSNYDITWIRQIPGKGLEWVSRISGSGGSTYFADSVKGRFIISRDNSKNTVYMQMNSLRAEDSAVYYCARRDSVLFSMNSWLDPWGQGTLVTVSS
VL: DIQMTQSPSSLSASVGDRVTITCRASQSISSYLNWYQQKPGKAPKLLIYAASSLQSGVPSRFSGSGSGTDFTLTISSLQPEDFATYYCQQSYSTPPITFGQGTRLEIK
notes: as for B1

Further lines, the binder ahead of its results:

B2: H4H17031P (antibody, human IgG4, V domains shown)
VH: QVQLQQWGAGLLKPSETLSLTCVVYGESFGNYHWNWIRQSPGKRLEWIGEINQNGHTNYNPSLKSRVTISVDTSKIQFSLRLNSVTAADTAVYFCARGHNYVNSYFGLDVWGQGTTVTVSS
VL: EIVMTQSPATLSVSPGERATLSCRTSQSVSISLAWYQRKPGQAPRLLIFGSSTRATGVPARFSGSGSGTEFTLTISSLQSEDFAVYYCQQYNNWPYTFGQGTKLEIK
- Kd (natural Bet v 1 [2]): 27.9 nM
- koff (natural Bet v 1 [2]): 0.00544 s⁻¹
- kon (natural Bet v 1 [2]): ~195000 M⁻¹ s⁻¹
- 100 nM natural Bet v 1 Bound (RU) (natural Bet v 1 [3]): 63 RU
- t½ (natural Bet v 1 [3]): 2.1 min
- 100 nM natural Bet v 1 Bound (RU) (natural Bet v 1 [4]): 54 RU
- Kd (natural Bet v 1 [4]): 13.5 nM
- koff (natural Bet v 1 [4]): 0.00168 s⁻¹
- kon (natural Bet v 1 [4]): 124000 M⁻¹ s⁻¹
- t½ (natural Bet v 1 [4]): 6.8 min

B3: H4H17038P2 (antibody, human IgG4 S228P, kappa, V domains shown)
VH: EVQLVESGGDLVQPGGSLRLSCAASGFTFSSYEMNWVRQAPGKGLEWVSFISDSSSNIYYADSVKGRFTISRDNAKKSLYLQMTSLRAEDTAVYYCAREAIGSTSFDNWGQGTLVTVSS
VL: EIVMTQSPATLSVSPGERATLSCRASQSVSSSLAWYQQKPGQAPRRLIYSASTRATGIPARFSGSGSGTEFTLTISSLQSEDFAIYYCHQYNNWPLTFGGGTKVEIKR
notes: human IgG4 Fc; also called REGN5714; MAB3
- 100 nM Analyte Bound (RU) [1]: 0 RU
- binding result [1]: no binding (tested: 100 nM)

B8: H4H16987P (antibody, human IgG4 S228P, kappa, V domains shown)
VH: EVQLVESGGGLVQPGGSLRLSCAASGFTVSSNSMSWVRQAPGEGLEWVSVIFSGGITYYSDSVKGRFTISRHNSKNTLYLQMNSLRTEDTAVYYCARHSNWNFDAFDIWGQGTMVTVSS
VL: DIQMTQSPSSLSASVGDRVTITCRASQSFDTYLNWYQQKPGKAPNLLIYATSSLQSGVPSRFSGSGSGTDFTLTISSLQPEDFGTYYCQQSYSIPYTFGQGTKLEIKR
notes: human IgG4; also called MAB4
- Percent Blocking [6]: -46%
- Percent Blocking [7]: 16%
- Percent Blocking [8]: 9%
- Percent Blocking [9]: 15%
- Percent Blocking [17]: 12%
- Percent Blocking [10]: 16%
- Percent Blocking [11]: 21.6%
- Percent Blocking [12]: 13%
- Percent Blocking [13]: -4%
- Percent Blocking [14]: 19.6%
- Percent Blocking [15]: 4%
- Percent Blocking [18]: 27%
- Percent Blocking [16]: 11.1%
